Source: the RNAGym collection of RNA variant scans (doi:10.1073/pnas.2313332121)

B1: TPR t1 (parent)
chain: GACCAAUCUGCCCUCAGAGCUCGAGAACAUCUUCGGAUGCAGAGGAGGCAGGCUUCGGUGGCGCGAUAGCGCCAACGUCCUCAACCUCCAAUGCAUCCCACCACAUGAUGAUGCCUGAAGAGCCUUGGUUUUUUG

Variants of: B1
Assay: polymerase ribozyme fitness, log enrichment relative to wild type (log ratio); higher = more active; in vitro selection for triplet polymerase activity
Summary of the method: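 To select mutant libraries of each subunit of a heterodimeric triplet polymerase ribozyme, built by PCR and transcribed, each was annealed with a biotinylated primer, partner subunit and triplets, then incubated frozen at −7 °C. Extended constructs were gel-excised, captured on streptavidin beads and amplified by RT-PCR, in one round carried out in triplicate. Illumina sequencing of input and output libraries kept genotypes with ≥10 input reads and ≥1 read per output. Fitness is the base-2 logarithm of genotype enrichment relative to wild-type enrichment, from inverse-variance-weighted replicate averages.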

Variant | polymerase ribozyme fitness (log ratio)
A111G G113C | -2.06
C98U A105G C114G C115A G135U | -7.98
U112A C114A U133A | -1.04
C94G G117A | -2.51
G113U A119G | -1.66
G113U A119C | -5.27
C101G U112A U116A U126A G127U | -2.86
C94U A100G G120U | -3.95
A111G G120A G122A | -2.07
G113A U131A | -0.84
G110A C123U | -0.322
C97G C104U | -3.29
C114A U133A G135C | -1.08
C101U U109C | -3.93
G110U G135U | -3.12
C94A U112G C124G | 0.054
C101A U131C | -0.88
C99U G128A U129A | -5.76
C102U U132A | -1.83
U96G G110U G120U U132C | -4.08
C98U A118C | -4.03
U106A G110U U126A U130A | -3.03
C114G G117U | -3.8
C114G G117A | -5.27

Variant | polymerase ribozyme fitness (log ratio)
C101A G110A | -2.55
A100C C124A | 0.995
U112A G113A | -0.782
U109G G113A | -5.72
G107A C114G G128A | -7.24
G113A U130A | -2.33
G113A U130C | -1.16
U96A C104U C124U | 0.864
G110A A119C | -2.25
U112G U130A | 0.613
C101G C123U | -0.756
U112A A119G | 1.9
C104A G120C G127A U129A | -2.25
U106A U133G | -0.54
C97U C104A | -2.32
C97U G127A | -1.48
A111C G122C | -1.39
G113U U116A | -4.64
C104A U134G | -1.17
A100U U133G | -0.612
A100U U133A | -0.657
C99U A119G | -1.65
C101G U106A G122A | -0.277
U96C C102U G110A G122U | -6.13

Variant | polymerase ribozyme fitness (log ratio)
A100G G120U | -3.45
A100C A121G | 1.39
C104G C114G G120A U126C U133G | -5.9
C114U A118G | -2.12
U112A A118U G135A | 1.33
G107U A121U G128C | -4.77
C101U A105C C114A | -6.11
C98G U116A C124G | -4.52
C102U G113A | -2.86
C104U U130G | -0.0774
C102A C114U | -3.69
A108G U116A C123U | -6.42
C94U A108U C124A | -4.49
U106A G110U | -0.605
C99A G122A | -5.29
U109A U130A | -5.09
C94G A100U G120A | -0.669
C94U U129A | -1.25
U96G G120U | -0.269
U96G G120A | -0.241
A95G U112A A119U | 0.842
U106A G127C | -3.2
U96A U133G | -0.674
G110U U125A | -0.916

Variant | polymerase ribozyme fitness (log ratio)
C104G | -6.88
C104A | -1.45
C104U | 0.111
A105G U106A G120U U133C | 0.414
C94U U131A | -0.362
A108G G122U | -1.78
U112G U116G | -2.14
A103C U109G U130C | -5.77
C101A G117A | -2.65
C101A G117C | -5.15
U96A A121C | 1.1
U96A A121G | 0.527
A95C G110A | -2.49
C101G C102G G110C | -4.36
A108U C124A | -4.18
A111C A119U | -2.28
A95C U116G | -2.17
C97A C102U | -4.94
C101G G122A | -2.93
C104A C123U G128U U130A | -1.35
C98A A100U U112A | -5.91
C94G G110A | -2.23
C99U G110C | -6.69
C99U U134C | -4.03

Variant | polymerase ribozyme fitness (log ratio)
C114G G120A G135A | -4.92
G107A U125G | -5.84
C97U C114U | -2.99
C97U C114A | -1.76
C97U C114G | -3.36
C97U G113C | -2.71
A95G U125A | -0.382
A100C G120A | 1.47
A95U U109A U130G | -6.07
A103U G120C C124U | -4.96
G107U C114A | -7.09
C99U A111G | -2.23
C99U A111C | -2.83
C101G G110U | -4.98
C94A C124A U125C U131A | -0.191
A95C G128C | -2.12
C94A G128A | -2.41
U106A G122A | -0.693
C97G A103U | -5.1
C104A G117A | -2.41
U112C G117A | -0.498
U106A G117C | -1.94
A103U A121G C123U | -2.56
G110A G120U | -1.91

Variant | polymerase ribozyme fitness (log ratio)
U96G G117A A119G | 0.491
U112G C123A | -2
C102A U109A | -5.92
A100U U116C | -2.35
G110C C124A | -3.32
U112G G113A U125C | -2.43
C94G U130A G135U | -1.4
U96A C99A U106G | -5.31
C102U U125A U129C | -3.71
C102U G120C | -1.05
A103U U130A | -4.14
G113C G120A | -2.39
G110A G127A U134C | -3.29
U109G G113A G127C | -6.26
U109G C114G | -4.93
C97G C123A | -4.41
A111C G117C | -4.16
A100C C102A | -2.98
U106C U109A A121U | -4.69
C94G U116C A118C | -3.89
C102U U106C G113A A121C U131G | -3.34
C104U A118U U131A | 0.243
C97A A111U | -5.77
C97A A111G | -5.96

Variant | polymerase ribozyme fitness (log ratio)
A105U A111U | -5.69
C94U G113C | -2.26
G110A G113U | -5.23
U96A C123U | -0.01
C114G G128U U129A | -5.24
C101U G122A | -1.06
U112G G117U | -1.25
U112G G117A | -2.9
U96G G113C | -2.59
C97U G120U C124A | 0.793
C104A C114G | -3.81
U106A C124A G128A | 0.53
A111U U112G G122A | -2.25
C104U U112G U116C | -1.98
U109G C115A | -7.19
G110A C115A | -1.87
C98U G110U | -2.66
A105C C114U G120C | -2.29
U112G U116A G117U A121G | 0.651
U96G A108G G117A | -4.91
U106A G107U U116C | -7.47
G113C U126C | -2.46
C104A G120U G127C | -1.76
